From patent publication EP4729537A1 (Universitat Politècnica de València, dated 2024)

Legend:
[1] = biological target: T1, antigenic protein: class A β-lactamase fragment of Mycobacterium abscessus (Blamab gene) with C-terminal TEV … (Mycobacterium abscessus); test: cell-based or functional assay
[2] = biological target: T1, antigenic protein: class A β-lactamase …; test: nitrocefin hydrolysis assay with purified enzyme, Lineweaver-Burk
[3] = biological target: T2, KPC-2 from Klebsiella pneumoniae, expressed in the periplasm of E. coli BL21(DE3) (Klebsiella pneumoniae, UniProt Q848S6 25-293); test: nitrocefin assay on E. coli BL21(DE3) cells with the β-lactamase in the periplasm
T2 construct: Expressed from pET26b(+) with a pelB export signal

[4] = biological target: T3, OXA-48 from Klebsiella pneumoniae, expressed in the periplasm of E. coli BL21(DE3) (Klebsiella pneumoniae, UniProt Q6XEC0 23-265, limits assumed); test: as above
T3 construct: Expressed from pET26b(+) with a pelB export signal

[5] = biological target: T4, VIM-2 from Pseudomonas aeruginosa, expressed in the periplasm of E. coli BL21(DE3) (Pseudomonas aeruginosa); test: as above
[6] = biological target: T2, KPC-2 from Klebsiella pneumoniae, …; test: cell-based or functional assay
[7] = biological target: T3, OXA-48 from Klebsiella pneumoniae, …; test: cell-based or functional assay
[8] = biological target: T4, VIM-2 from Pseudomonas aeruginosa, …; test: cell-based or functional assay

Row | Binder | Km (µM), with antibody [1] | Vmax (µM/min), with antibody [1] | Ki [2] | Ki [3] | Ki [4] | Ki [5] | further results
1 | β-lactamase inhibitor B4 antibody (VHH, sdAb from a synthetic naive yeast display library; expressed from pET26b in the E. coli periplasm and purified by chromatography; also called sdAb B4) VHH: QVQLQESGGGLVQAGGSLRLSCAASGTIFAQDYMGWYRQAPGKEREFVASIAYGTITYYADSVKGRFTISRDNAKNTVYLQMNSLKPEDTAVYYCAVYPTPVTDYIYWGQGTQVTVSS | 45.6 µM | 0.28 µM/min | 5.2 µM |  |  |  | 
2 | β-lactamase inhibitor B3 antibody (VHH, sdAb from a synthetic naive yeast display library; expressed from pET26b in the E. coli periplasm and purified by chromatography; also called sdAb B3) VHH: QVQLQESGGGLVQAGGSLRLSCAASGTIFYYPYMGWYRQAPGKEREFVAGIDYGSTTYYADSVKGRFTISRDNAKNTVYLQMNSLKPEDTAVYYCAVVYLVTRKGASQQDEIYSYWGQGTQVTVSS | 51.9 µM | 0.34 µM/min | 2.7 µM |  |  |  | 
3 | single domain antibody B1 (VHH, sdAb from a synthetic naive yeast display library; expressed from pET26b in the E. coli periplasm and purified by chromatography; also called sdAb B1) VHH: QVQLQESGGGLVQAGGSLRLSCAASGNIFTVSSMGWYRQAPGKEREFVAAISDGATTNYADSVKGRFTISRDNAKNTVYLQMNSLKPEDTAVYYCAAYASRVGLTVYWGQGTQVTVSS | 42.6 µM | 0.26 µM/min | 15.6 µM |  |  |  | 
4 | β-lactamase inhibitor B2 antibody (VHH, sdAb from a synthetic naive yeast display library; expressed from pET26b in the E. coli periplasm and purified by chromatography; also called sdAb B2) VHH: QVQLQESGGGLVQAGGSLRLSCAASGTIFVYPYMGWYRQAPGKEREFVAGIGQGATTYYADSVKGRFTISRDNAKNTVYLQMNSLKPEDTAVYYCAAYRYRDDVRRYGIDRYHTYWGQGTQVTVSS | 64.4 µM | 0.25 µM/min | 2.4 µM | 0.06 µM | 10.5 µM | 2.9 µM | Km(µM), with B2 [6]: 121 µM; Vmax(µM/min), with B2 [6]: 0.7 µM/min; Km(µM), with B2 [7]: 6.62 µM; Vmax(µM/min), with B2 [7]: 0.059 µM/min; Km(µM), with B2 [8]: 39.6 µM; Vmax(µM/min), with B2 [8]: 0.017 µM/min
5 | β-lactamase inhibitor B5 antibody (VHH, sdAb from a synthetic naive yeast display library; expressed from pET26b in the E. coli periplasm and purified by chromatography; also called sdAb B5) VHH: QVQLQESGGGLVQAGGSLRLSCAASGNISDLGTMGWYRQAPGKEREFVAGIGTGSNTYYADSVKGRFTISRDNAKNTVYLQMNSLKPEDTAVYYCAVIAGRSYWIYFYYWGQGTQVTVSS | 57.3 µM | 0.23 µM/min | 3.8 µM | 0.12 µM | 30.8 µM | 68.9 µM | Km(µM), with B5 [6]: 2.19 µM; Vmax(µM/min), with B5 [6]: 0.5 µM/min; Km(µM), with B5 [7]: 2.26 µM; Vmax(µM/min), with B5 [7]: 0.061 µM/min; Km(µM), with B5 [8]: 0.97 µM; Vmax(µM/min), with B5 [8]: 0.0084 µM/min
6 | β-lactamase inhibitor B6 antibody (VHH, sdAb from a synthetic naive yeast display library; expressed from pET26b in the E. coli periplasm and purified by chromatography; also called sdAb B6) VHH: QVQLQESGGGLVQAGGSLRLSCAASGTISAVSGMGWYRQAPGKEREFVASINRGSTTNYADSVKGRFTISRDNAKNTVYLQMNSLKPEDTAVYYCAALHGTGRVHVYWGQGTQVTVSS | 53.3 µM | 0.26 µM/min | 4.9 µM |  |  |  | 
